Data as given in publication PMC4372654.
Like-named read-outs stand apart in the source and are kept apart here.

T1: Orf16 (KfrA homolog), His-tagged (Paenibacillus popilliae ATCC 14706T …, UniProt A0A0D6CB60 1-326)
T1 sequence: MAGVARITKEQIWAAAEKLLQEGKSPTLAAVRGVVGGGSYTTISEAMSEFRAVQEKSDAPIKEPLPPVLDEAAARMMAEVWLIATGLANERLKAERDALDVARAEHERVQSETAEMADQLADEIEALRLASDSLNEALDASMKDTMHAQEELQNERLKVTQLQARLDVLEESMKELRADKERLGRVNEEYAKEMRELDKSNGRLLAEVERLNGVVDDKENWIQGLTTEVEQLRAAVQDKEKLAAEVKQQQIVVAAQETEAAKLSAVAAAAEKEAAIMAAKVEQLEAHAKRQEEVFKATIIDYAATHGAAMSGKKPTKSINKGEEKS

T2: Orf8 (KfrA homolog), His-tagged (Paenibacillus popilliae ATCC 14706T …, UniProt A0A0D6CAG5 1-327)
T2 sequence: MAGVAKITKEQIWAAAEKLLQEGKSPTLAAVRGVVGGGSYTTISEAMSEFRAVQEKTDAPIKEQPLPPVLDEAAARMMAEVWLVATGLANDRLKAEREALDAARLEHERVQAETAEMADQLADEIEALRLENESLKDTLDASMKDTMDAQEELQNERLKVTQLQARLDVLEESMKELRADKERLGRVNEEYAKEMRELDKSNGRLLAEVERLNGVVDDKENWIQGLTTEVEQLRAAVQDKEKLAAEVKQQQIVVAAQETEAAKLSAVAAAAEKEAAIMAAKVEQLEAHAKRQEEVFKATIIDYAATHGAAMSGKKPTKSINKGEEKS


Tests used:
Test in all cases: competition
[1] = molecular target: T1, Orf16 (KfrA homolog), His-tagged
[2] = molecular target: T2, Orf8 (KfrA homolog), His-tagged
[3] = molecular target: T1, Orf16 (KfrA homolog), His-tagged; remark: listed apart in the source

| Binder | binding result [1] | binding result [2] | binding result [3] |
| --- | --- | --- | --- |
| IR4 (dsDNA) DNA 1: CATACTACATACAATATACAACATACTACAATATGGAGGGTG DNA 2: GTACCACCCTCCATATTGTAGTATGTTGTATATTGTATGTAGTATGAGCT | binds | binds |  |
| IR3 (dsDNA) DNA 1: CATACTACATATTACATATTACATACTACATACTACAATATGGAGGGTG DNA 2: GTACCACCCTCCATATTGTAGTATGTAGTATGTAATATGTAATATGTAGTATGAGCT | binds | binds |  |
| IR1 (dsDNA) DNA 1: CATGAAAAAATCATG DNA 2: GTACCATGATTTTTTCATGAGCT |  |  | no binding |
